{"source": "patent US20120258090", "proteins": {"B1": {"name": "recombinant ecarin (activated, in CHO-S culture supernatant) (protein)", "chain": "VPPHERKFEKKFIELVVVVDHSMVTKYNNDSTAIRTWIYEMLNTVNEIYLPFNIRVALVGLEFWCNGDLINVTSTADDTLHSFGEWRASDLLNRKRHDHAQLLTNVTLDHSTLGITFVYGMCKSDRSVELILDYSNITFNMAYIIAHEMGHSLGMLHDTKFCTCGAKPCIMFGKESIPPPKEFSSCSYDQYNKYLLKYNPKCILDPPLRKDIASPAVCGNEIWEEGEECDCGSPADCRNPCCDAATCKLKPGAECGNGECCDKCKIRKAGTECRPARDDCDVAEHCTGQSAECPRNEFQRNGQPCLNNSGYCYNGDCPIMLNQCIALFSPSATVAQDSCFQRNLQGSYYGYCTKEIGYYGKRFPCAPQDVKCGRLYCLDNSFKKNMRCKNDYSYADENKGIVEPGTKCEDGKVCINRKCVDVNTAY"}}, "key": {"[1]": {"target": "fully carboxylated recombinant human prothrombin, P00734"}, "[2]": {"target": "incompletely carboxylated recombinant human prothrombin, P00734"}}}
{"protein": "B1", "values": [{"measurement": "activation of prothrombin", "setting": "[1]", "result": "the recombinant ecarin is able to efficiently activate both the fully carboxylated and the incompletely carboxylated prothrombins"}, {"measurement": "activation of prothrombin", "setting": "[2]", "result": "the recombinant ecarin is able to efficiently activate both the fully carboxylated and the incompletely carboxylated prothrombins"}]}
